According to paper PMC4975591:

Molecular target: T1, Full-length cysteine string protein CSP(1-198), Q9H3Z4
T1 chain: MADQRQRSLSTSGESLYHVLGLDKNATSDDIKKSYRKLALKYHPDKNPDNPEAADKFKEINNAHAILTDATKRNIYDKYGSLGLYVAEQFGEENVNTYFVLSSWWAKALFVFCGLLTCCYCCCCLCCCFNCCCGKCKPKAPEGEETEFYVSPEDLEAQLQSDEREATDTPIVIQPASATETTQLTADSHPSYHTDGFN
Assay: AUC; sedimentation velocity, 50,000 rpm, 20.1°C, 9 hr, absorbance at 279 nm; self-association of purified recombinant protein
Settings: remark: other sources report otherwise

stoichiometry N: > 10 subunits
B1: Full-length cysteine string protein CSP(1-198), Q9H3Z4 1-198 (natural protein)
chain: MADQRQRSLSTSGESLYHVLGLDKNATSDDIKKSYRKLALKYHPDKNPDNPEAADKFKEINNAHAILTDATKRNIYDKYGSLGLYVAEQFGEENVNTYFVLSSWWAKALFVFCGLLTCCYCCCCLCCCFNCCCGKCKPKAPEGEETEFYVSPEDLEAQLQSDEREATDTPIVIQPASATETTQLTADSHPSYHTDGFN
